From patent publication US20230340027A1 (TECHNION RESEARCH AND DEVELOPMENT FOUNDATION, published 2023) come the findings set out here.

For orientation: EC50 (read off the curve) means the concentration needed to bring the measured effect to its halfway point. A word on the Kd: it is the free concentration of one partner at which half of the binding sites on the other are occupied at equilibrium, for simple one-to-one binding.

Positions of bridges follow the written chain, without caps; N, C: chain ends. code X = not defined here

The target of assay [1] is T1, biotin-tetra-UbK48 (UniProt P0CG48 1-76, Ub monomers linked to one another via Lys48 (K48); biotin tag (site not stated)).
T1 construct: Immobilised on streptavidin-coated 96-well plates (1 ug per well); one ubiquitin repeat is meant; also called biotin tagged tetra-UbK48
As to the kind of experiment: direct fluorescence plate binding: biotin-tetra-UbK48 on a streptavidin plate, labeled peptide titrated, bound peptide released with 6 M Gn.HCl and read (ex 480 nm, em 525 nm); one-site fit.

The target in assay [2] is T1, biotin-tetra-UbK48. As to the kind of experiment: the filing's modified fluorescence assay, FITC-labelled peptide on tetra-UbK48 (FIGS. 1G and 26).
Experimental: (1i) A non-limiting schematic representation of the screening of various unlabeled peptides. (1A) An unlabeled cyclic peptide introduced for binding to the biotin-tetra Ub. (1B) A labeled cyclic peptide is introduced to compete with the binding of the unlabeled peptides to the biotin-tetra Ub followed by washing the unbounded peptides. (1C) The bound peptides are released using Guanidinium-HCl (Gn·HCl) and the fluorescence intensity is measured. (1ii) A non-limiting schematic representation for measuring the dissociation constant (Kd) of FITC-labeled peptide with different concentrations. (1D) A FITC-labeled cyclic peptide with different concentrations are introduced in different wells for binding to the biotin-tetra Ub. (1E) Washing out the unbounded labeled cyclic peptide. (1F) The bound peptides are released using Gn·HCl and the fluorescence intensity is measured. […] All measurements were performed in triplicates.
The inventors envisioned a screening strategy to proceed through four main steps, each terminated by washings with binding buffer. First, biotin tagged tetra-UbK48 was immobilized in a constant amount (1 μg per well) in streptavidin covered 96 well plate (FIG. 1(i and ii)). […] Finally, the bound peptides were released from wells by treatment with 6 M guanidine hydrochloride (Gn·HCl) solution followed by measuring the gained fluorescence (FIG. 1(i)).

B1: (Ub4_ix_S7C)2CH2-FITC (peptide)
peptide: {CH2CO}-WLYLDDCGDWWICG-{code X-C(fluorescein-5-maleimide)-NH2}
modifications: thioether N-13 (inferred); reading uncertain; also: dimer: Cys7 joined to Cys7 of second copy by -S-CH2-S-, residue 15 not given here
notes: Dimer of peptide 29, so each chain carries the label; also called FITC labeled stapled dimer 30; 30
With B1, the “EC50 (read off the curve)” value in assay [1] was ~10 nM. The molecule further came in with a Kd in assay [2] of 12.3 nM.
